In article PMC5080440:

Experiments:
[1] = target: TagRFP-T-CENP-C with the talin rod domain inserted into the middle (internal CENP-C-TR reporter) (Drosophila melanogaster | chicken) (UniProt P54939); assay: quantitative two-colour fluorescence imaging of recruitment to kinetochores in live cells; S2 cells co-expressing VH-EGFP and TagRFP-T-CENP-C-TR; metaphase cells, 0.1% DMSO (bioriented kinetochores, under force); VH-EGFP to TagRFP-T ratio divided by the correction ratio from TagRFP-T-CENP-C-EGFP; 25 °C
[2] = target: TagRFP-T-CENP-C with the talin rod domain at the C terminus (C-terminal CENP-C-TR control reporter) (Drosophila melanogaster | chicken) (UniProt P54939); assay: quantitative two-colour fluorescence imaging of recruitment to kinetochores in live cells; S2 cells co-expressing VH-EGFP and TagRFP-T-CENP-C-TR; 25 uM colchicine (unattached kinetochores, low/no force); VH-EGFP to TagRFP-T ratio divided by the correction ratio from TagRFP-T-CENP-C-EGFP; 25 °C
[3] = target: TagRFP-T-CENP-C with the talin rod domain inserted into the middle (internal CENP-C-TR reporter) (Drosophila melanogaster | chicken) (UniProt P54939); assay: as above

B1: vinculin head domain (aa 1-258) fused to EGFP (domain or fragment)
chain: MPVFHTRTIESILEPVAQQISHLVIMHEEGEVDGKAIPDLTAPVSAVQAAVSNLVRVGKETVQTTEDQILKRDMPPAFIKVENACTKLVRAAQMLQADPYSVPARDYLIDGSRGILSGTSDLLLTFDEAEVRKIIRVCKGILEYLTVAEVVETMEDLVTYTKNLGPGMTKMAKMIDERQQELTHQEHRVMLVNSMNTVKELLPVLISAMKIFVTTKNTKSQGIEEALKNRNFTVEKMSAEINEIIRVLQLTSWDEDAW
Work on B1 yielded a stoichiometry N (VH molecules per CENP-C-TR) [1] of 1.3, a stoichiometry N (VH molecules per TR) [2] of 0.75 and a stoichiometry N (VH-EGFP molecules per TR) [3] of 0.9.
